The values below come from the supplement of paper PMC9112550, “Optimization of the antimicrobial peptide Bac7 by deep mutational scanning” (BMC Biology, 2022).
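Note: peptides expressed intracellularly from a pBAD plasmid library in pooled LB shake-flask culture, induced with 0.3% L-arabinose, DNA abundance read by NGS, three biological replicates, DESeq2 with apeglm shrinkage.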

The test system of the series is Escherichia coli TOP10. Description: shrunken log2 fold change of peptide-encoding DNA abundance (4.5 h post-induction vs induction); higher = less antimicrobial activity (less host growth inhibition). Conditions: time post-induction: 4.5 h; library: site-saturation at positions 5, 18, 19, 20.
Regarding RRIRARPPRLPRPRPRPHLSPRP, the “shrunken log2 fold change” value is 0.0969. As to RRIRTRPPRLPRPRPRPCPEPRP, the “shrunken log2 fold change” value was -0.0641. Turning to RRIRWRPPRLPRPRPRPKMHPRP, the “shrunken log2 fold change” value was 0.386. Regarding RRIRQRPPRLPRPRPRPRFRPRP, the “shrunken log2 fold change” value came to 0.0281. Take RRIRCRPPRLPRPRPRPWDMPRP: the “shrunken log2 fold change” value was -0.0934. For RRIRKRPPRLPRPRPRPRPTPRP, the “shrunken log2 fold change” value was determined as 1.04.

As to RRIRSRPPRLPRPRPRPMIMPRP, the “shrunken log2 fold change” value was -0.0825. On to RRIRWRPPRLPRPRPRPCSVPRP, for which the “shrunken log2 fold change” value was determined as 0.0151. RRIRRRPPRLPRPRPRPRWDPRP: the “shrunken log2 fold change” value was 0.457. In the case of RRIRDRPPRLPRPRPRPPFPPRP, the “shrunken log2 fold change” value was 0.206. Take RRIRCRPPRLPRPRPRPSQTPRP: the “shrunken log2 fold change” value is -0.338. RRIRMRPPRLPRPRPRPWPLPRP: the “shrunken log2 fold change” value is 0.0935. Turning to RRIRRRPPRLPRPRPRPYQSPRP, the “shrunken log2 fold change” value was -0.145. With RRIRMRPPRLPRPRPRPRSYPRP, the “shrunken log2 fold change” value was determined as 0.068.

As for RRIRWRPPRLPRPRPRPFQDPRP, the “shrunken log2 fold change” value was -0.496.

As for RRIRCRPPRLPRPRPRPPGVPRP, the “shrunken log2 fold change” value worked out at 0.158. Take RRIRYRPPRLPRPRPRPTSVPRP: the “shrunken log2 fold change” value was -0.395. RRIRHRPPRLPRPRPRPIRFPRP: the “shrunken log2 fold change” value was -0.00142. RRIRWRPPRLPRPRPRPLRGPRP: the “shrunken log2 fold change” value worked out at 1.01. With RRIRTRPPRLPRPRPRPMNWPRP the figure was -0.234; with RRIRSRPPRLPRPRPRPFCVPRP, -0.128; with RRIRPRPPRLPRPRPRPLIRPRP, -0.218. For the sequence RRIRWRPPRLPRPRPRPCNKPRP, the “shrunken log2 fold change” value is -0.738. For RRIRARPPRLPRPRPRPKQDPRP, the “shrunken log2 fold change” value came out at 0.734. For RRIRLRPPRLPRPRPRPKERPRP the value was -0.00664; for RRIRPRPPRLPRPRPRPISFPRP, -0.101.

Consider RRIRCRPPRLPRPRPRPWVQPRP, for which the “shrunken log2 fold change” value is -0.391. Consider RRIRMRPPRLPRPRPRPLRYPRP, for which the “shrunken log2 fold change” value was 0.856.

RRIRRRPPRLPRPRPRPAACPRP: the “shrunken log2 fold change” value turned out to be 0.0555. Regarding RRIRCRPPRLPRPRPRPYSAPRP, the “shrunken log2 fold change” value is -0.752. RRIRKRPPRLPRPRPRPGEAPRP: the “shrunken log2 fold change” value was 1.09. In the case of RRIRRRPPRLPRPRPRPVGGPRP, the “shrunken log2 fold change” value is 0.984. For RRIRDRPPRLPRPRPRPSGHPRP the value was 1.17; for RRIRMRPPRLPRPRPRPYTCPRP, 8.02e-05; for RRIRDRPPRLPRPRPRPIEVPRP, -0.13.

With RRIRYRPPRLPRPRPRPRFHPRP, the “shrunken log2 fold change” value is -0.939. For the sequence RRIRNRPPRLPRPRPRPQHMPRP, the “shrunken log2 fold change” value was -0.605. On to RRIRWRPPRLPRPRPRPEQIPRP, for which the “shrunken log2 fold change” value came out at 0.199. As for RRIRTRPPRLPRPRPRPPPAPRP, the “shrunken log2 fold change” value worked out at 0.746. For RRIRPRPPRLPRPRPRPQGGPRP the value was 0.332.

With RRIRIRPPRLPRPRPRPPSAPRP, the “shrunken log2 fold change” value is 0.369.

As to RRIRMRPPRLPRPRPRPHMKPRP, the “shrunken log2 fold change” value is -0.158. Consider RRIRSRPPRLPRPRPRPAQKPRP, for which the “shrunken log2 fold change” value amounted to 0.33.

Regarding RRIRSRPPRLPRPRPRPCDNPRP, the “shrunken log2 fold change” value is -0.165. For the sequence RRIRGRPPRLPRPRPRPADFPRP, the “shrunken log2 fold change” value was 0.149. Regarding RRIRGRPPRLPRPRPRPASIPRP, the “shrunken log2 fold change” value is 0.371. With RRIRARPPRLPRPRPRPKPAPRP, the “shrunken log2 fold change” value was determined as 0.711.

On to RRIRTRPPRLPRPRPRPCWGPRP, for which the “shrunken log2 fold change” value is -0.234. For RRIRMRPPRLPRPRPRPFQMPRP the value was -0.323; for RRIRNRPPRLPRPRPRPTIYPRP, -0.106. Turning to RRIRYRPPRLPRPRPRPWMNPRP, the “shrunken log2 fold change” value is -0.00197. Take RRIRPRPPRLPRPRPRPHMMPRP: the “shrunken log2 fold change” value was -0.19. For the sequence RRIRFRPPRLPRPRPRPTSSPRP, the “shrunken log2 fold change” value was -0.0359. For the sequence RRIRDRPPRLPRPRPRPTDGPRP, the “shrunken log2 fold change” value is -0.107.

Turning to RRIRNRPPRLPRPRPRPFISPRP, the “shrunken log2 fold change” value was -0.0484. As for RRIRYRPPRLPRPRPRPKWKPRP, the “shrunken log2 fold change” value is -0.0135. RRIRERPPRLPRPRPRPPWMPRP: the “shrunken log2 fold change” value is -0.22.

Take RRIRWRPPRLPRPRPRPSLSPRP: the “shrunken log2 fold change” value amounted to 1.36. As to RRIRERPPRLPRPRPRPISHPRP, the “shrunken log2 fold change” value was -0.678.

As to RRIRERPPRLPRPRPRPLIDPRP, the “shrunken log2 fold change” value was -0.352. Take RRIRQRPPRLPRPRPRPLFWPRP: the “shrunken log2 fold change” value is -0.23. For RRIRVRPPRLPRPRPRPAHRPRP, the “shrunken log2 fold change” value was -0.0183.

Consider RRIRIRPPRLPRPRPRPANWPRP, for which the “shrunken log2 fold change” value was determined as 0.236.

Turning to RRIRMRPPRLPRPRPRPICNPRP, the “shrunken log2 fold change” value was -0.0126. With RRIRLRPPRLPRPRPRPNQLPRP the figure was -0.407; with RRIRMRPPRLPRPRPRPAEAPRP, 0.917.

Regarding RRIRHRPPRLPRPRPRPKSLPRP, the “shrunken log2 fold change” value was -0.0347. For RRIRKRPPRLPRPRPRPFQWPRP the value was 0.0233. On to RRIRFRPPRLPRPRPRPLDRPRP, for which the “shrunken log2 fold change” value turned out to be 0.163.

For the sequence RRIRVRPPRLPRPRPRPYWGPRP, the “shrunken log2 fold change” value was -0.526.

As to RRIRGRPPRLPRPRPRPDRAPRP, the “shrunken log2 fold change” value worked out at 1.04. Take RRIRMRPPRLPRPRPRPKVYPRP: the “shrunken log2 fold change” value amounted to 0.0391. RRIRERPPRLPRPRPRPVHCPRP: the “shrunken log2 fold change” value is -0.293. As to RRIRIRPPRLPRPRPRPPKTPRP, the “shrunken log2 fold change” value is -0.00537. RRIRTRPPRLPRPRPRPIFDPRP: the “shrunken log2 fold change” value was -0.337. For the sequence RRIRVRPPRLPRPRPRPLAKPRP, the “shrunken log2 fold change” value is -0.252.

Take RRIRFRPPRLPRPRPRPIPNPRP: the “shrunken log2 fold change” value was -0.361. With RRIRTRPPRLPRPRPRPQEEPRP, the “shrunken log2 fold change” value is -0.0236. For RRIRKRPPRLPRPRPRPLHVPRP the value was 0.0446; for RRIRWRPPRLPRPRPRPLWFPRP, 0.134; for RRIRRRPPRLPRPRPRPDHCPRP, -0.0402. Turning to RRIRHRPPRLPRPRPRPEPRPRP, the “shrunken log2 fold change” value amounted to 0.137.

On to RRIRVRPPRLPRPRPRPRQAPRP, for which the “shrunken log2 fold change” value worked out at 0.224. Regarding RRIRGRPPRLPRPRPRPQATPRP, the “shrunken log2 fold change” value is 1.2. On to RRIRRRPPRLPRPRPRPLYLPRP, for which the “shrunken log2 fold change” value is 0.926. With RRIRKRPPRLPRPRPRPHDTPRP, the “shrunken log2 fold change” value is -0.0804. RRIRDRPPRLPRPRPRPRNNPRP: the “shrunken log2 fold change” value is -0.196. With RRIRDRPPRLPRPRPRPWGGPRP the figure was 0.422. On to RRIRKRPPRLPRPRPRPMHWPRP, for which the “shrunken log2 fold change” value amounted to 0.136.

With RRIRARPPRLPRPRPRPMACPRP, the “shrunken log2 fold change” value was found to be 0.879.

With RRIRDRPPRLPRPRPRPTDFPRP, the “shrunken log2 fold change” value was -0.0352.

As for RRIRMRPPRLPRPRPRPPWTPRP, the “shrunken log2 fold change” value stood at 1.15. For the sequence RRIRTRPPRLPRPRPRPDNPPRP, the “shrunken log2 fold change” value was -0.371. With RRIRYRPPRLPRPRPRPSVDPRP the figure was -0.61. In the case of RRIRLRPPRLPRPRPRPICCPRP, the “shrunken log2 fold change” value was -0.205. As to RRIRDRPPRLPRPRPRPVIKPRP, the “shrunken log2 fold change” value worked out at 0.0149.

Take RRIRDRPPRLPRPRPRPMPWPRP: the “shrunken log2 fold change” value was -0.0438. For RRIRQRPPRLPRPRPRPTLAPRP, the “shrunken log2 fold change” value amounted to 0.783. Turning to RRIRYRPPRLPRPRPRPGSTPRP, the “shrunken log2 fold change” value was -0.0367. In the case of RRIRVRPPRLPRPRPRPIQMPRP, the “shrunken log2 fold change” value was -0.0987.

As to RRIRVRPPRLPRPRPRPSMRPRP, the “shrunken log2 fold change” value is 0.477.

As to RRIRFRPPRLPRPRPRPCMLPRP, the “shrunken log2 fold change” value is -0.591. For RRIRIRPPRLPRPRPRPMLMPRP the value was -0.515; for RRIRTRPPRLPRPRPRPGQSPRP, -0.267; for RRIRKRPPRLPRPRPRPRVDPRP, 0.0968.

In the case of RRIRNRPPRLPRPRPRPLMVPRP, the “shrunken log2 fold change” value is -0.254. As to RRIRRRPPRLPRPRPRPRKHPRP, the “shrunken log2 fold change” value stood at 0.535. For RRIRKRPPRLPRPRPRPHHNPRP, the “shrunken log2 fold change” value was -0.421. With RRIRMRPPRLPRPRPRPAIVPRP, the “shrunken log2 fold change” value is -0.161. Consider RRIRLRPPRLPRPRPRPGHNPRP, for which the “shrunken log2 fold change” value is -0.371. With RRIRFRPPRLPRPRPRPQDVPRP the figure was -0.193. RRIRWRPPRLPRPRPRPDIYPRP: the “shrunken log2 fold change” value was -0.0594. In the case of RRIRSRPPRLPRPRPRPVWPPRP, the “shrunken log2 fold change” value was 0.434.

Consider RRIRNRPPRLPRPRPRPYQAPRP, for which the “shrunken log2 fold change” value stood at 0.036. On to RRIRIRPPRLPRPRPRPAMFPRP, for which the “shrunken log2 fold change” value is -0.45. Turning to RRIRSRPPRLPRPRPRPEKFPRP, the “shrunken log2 fold change” value is -0.146. Consider RRIRSRPPRLPRPRPRPEKNPRP, for which the “shrunken log2 fold change” value is 0.312. For RRIRLRPPRLPRPRPRPMKCPRP the value was 0.131. With RRIRCRPPRLPRPRPRPMGLPRP the figure was -0.0216; with RRIRARPPRLPRPRPRPHHSPRP, -0.404. For RRIRARPPRLPRPRPRPGCWPRP the value was 0.965.

As to RRIRDRPPRLPRPRPRPMTLPRP, the “shrunken log2 fold change” value is 0.0841. RRIRVRPPRLPRPRPRPLPGPRP: the “shrunken log2 fold change” value amounted to 0.547.

Take RRIRYRPPRLPRPRPRPHEVPRP: the “shrunken log2 fold change” value is -0.0317.

As to RRIRDRPPRLPRPRPRPESIPRP, the “shrunken log2 fold change” value is -0.0509.
